What was measured:
[1] = biological target: T1, cohesin-human CD40 ectodomain protein (P3398) (human); experiment: SPR
T1 construct: SPR analyte; also called soluble human CD40 ectodomain; liquid phase soluble human CD40 ectodomain; not shown: cohesin domain of P3398 and its junction to CD40

[2] = biological target: T2, human CD40 ectodomain fused to FAS transmembrane and intracellular domains, on CHO cells (human); experiment: cell-based or functional assay
[3] = biological target: T3, human CD40 on cells (B cells, MDDCs, stably transfected CHO cells) (human, UniProt P25942 21-277); experiment: cell-based or functional assay
[4] = biological target: T3, human CD40 on cells (B cells, MDDCs, …); experiment: cell-based or functional assay; remark: listed apart in the source
[5] = biological target: T1, cohesin-human CD40 ectodomain protein …; experiment: SPR (SensiQ Pioneer), hIgG4 mAb captured on Protein A/G, cohesin-human CD40 ectodomain in solution
[6] = biological target: T3, human CD40 on cells (B cells, MDDCs, …); experiment: flow cytometry, stably transfected CHO cells, 1 h on ice, goat anti-human IgG-PE, % of events in gate P1 [panel CD40 CHO]
[7] = biological target: T2, human CD40 ectodomain fused to FAS …; experiment: flow cytometry, stably transfected CHO cells, 1 h on ice, goat anti-human IgG-PE, % of events in gate P1 [panel WT CD40-FAS CHO]
[8] = biological target: CD40 E28A FAS (mutated CD40 ectodomain fused to FAS) on CHO cells (human); experiment: flow cytometry, stably transfected CHO cells, 1 h on ice, goat anti-human IgG-PE, % of events in gate P1 [panel CD40 E28A FAS CHO]
[9] = biological target: CD40 R27A FAS (mutated CD40 ectodomain fused to FAS) on CHO cells (human); experiment: flow cytometry, stably transfected CHO cells, 1 h on ice, goat anti-human IgG-PE, % of events in gate P1 [panel CD40 R27A FAS CHO]
[10] = biological target: T4, human CD40 ectodomain mouse Fc fusion protein (human, UniProt P25942 21-193); experiment: competition flow cytometry: human IgG4 mAb titrated into 2 ug/ml human CD40 ectodomain-mouse Fc, 1 h on ice, then added to human CD40L-transfected L cells; cell-bound CD40-Fc detected with anti-IgG-PE; blocked ligand: CD40L on L cells [right panel]
T4 construct: a human Fc version was used with the mouse mAbs; also called soluble CD40

[11] = biological target: T4, human CD40 ectodomain mouse Fc fusion …; experiment: competition, flow cytometry: mAb pre-incubated with CD40 ectodomain-Fc, then CD40L-transfected L cells

T2 sequence (chain, as listed by the source limits assumed): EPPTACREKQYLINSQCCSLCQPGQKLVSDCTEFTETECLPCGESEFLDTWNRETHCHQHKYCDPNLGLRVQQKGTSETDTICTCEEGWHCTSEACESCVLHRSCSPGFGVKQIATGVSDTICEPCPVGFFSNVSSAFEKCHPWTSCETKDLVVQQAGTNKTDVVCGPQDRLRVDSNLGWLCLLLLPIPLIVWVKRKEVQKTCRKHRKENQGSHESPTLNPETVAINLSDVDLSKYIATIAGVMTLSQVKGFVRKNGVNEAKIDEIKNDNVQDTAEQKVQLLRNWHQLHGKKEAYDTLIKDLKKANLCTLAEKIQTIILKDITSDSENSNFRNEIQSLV
Chain of CD40 E28A FAS (mutated CD40 ectodomain fused to FAS) on CHO cells (human) (chain, as listed by the source E28A E28A): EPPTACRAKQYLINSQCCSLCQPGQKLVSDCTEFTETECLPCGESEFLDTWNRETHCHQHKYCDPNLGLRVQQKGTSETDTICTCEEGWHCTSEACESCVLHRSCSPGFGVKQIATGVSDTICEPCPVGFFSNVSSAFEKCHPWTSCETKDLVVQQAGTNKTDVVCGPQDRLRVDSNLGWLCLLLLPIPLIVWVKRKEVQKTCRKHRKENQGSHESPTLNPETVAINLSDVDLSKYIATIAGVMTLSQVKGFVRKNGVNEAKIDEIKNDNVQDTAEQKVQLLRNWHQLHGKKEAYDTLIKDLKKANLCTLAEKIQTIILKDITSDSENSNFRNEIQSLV
T3 sequence (P25942 21-277): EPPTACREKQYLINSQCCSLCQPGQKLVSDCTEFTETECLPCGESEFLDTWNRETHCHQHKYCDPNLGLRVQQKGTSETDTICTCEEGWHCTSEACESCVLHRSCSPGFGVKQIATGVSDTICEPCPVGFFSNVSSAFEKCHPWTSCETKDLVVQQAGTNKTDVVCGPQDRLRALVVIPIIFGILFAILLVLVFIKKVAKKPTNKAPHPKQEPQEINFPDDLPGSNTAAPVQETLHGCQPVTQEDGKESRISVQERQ
Chain of CD40 R27A FAS (mutated CD40 ectodomain fused to FAS) on CHO cells (human) (chain, as listed by the source R27A R27A): as the sequence (chain, as listed by the source E28A E28A) above, with R7A, A8E counted along it
T1 sequence (chain, as listed by the source limits assumed): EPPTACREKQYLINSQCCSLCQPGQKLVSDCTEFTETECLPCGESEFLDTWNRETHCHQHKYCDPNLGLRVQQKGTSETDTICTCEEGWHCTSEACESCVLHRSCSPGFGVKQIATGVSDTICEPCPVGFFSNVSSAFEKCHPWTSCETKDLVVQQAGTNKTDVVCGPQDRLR

Binder	Kd [1] [nM]	EC50 of killing of CD40-FAS CHO cells (loss of MTT reduction) [2] [nM]	EC50/EC50 CP, B cell proliferation [3] [ratio]	Δ w/sCD40L (fold): fold difference in B cell proliferation EC50 with constant 6 nM soluble human CD40L [3] [fold]	EC50 (nM) cytokines: 50% of maximum cytokine secretion by MDDCs [4] [nM]	EC50/EC50 CP, MDDC cytokine secretion [4] [ratio]	EC50 w/sCD40L (nM): MDDC cytokine secretion with constant suboptimal soluble human CD40L [4] [nM]	Δ w/sCD40L (fold): MDDC cytokine secretion EC50 [4] [fold]	Kd [5] [nM]	koff [5] [s⁻¹]	kon [5] [M⁻¹ s⁻¹]	EC50 (read off the curve) [6] [nM]	EC50 (read off the curve) [7] [nM]	EC50 (read off the curve) [8] [nM]	EC50 (read off the curve) [9] [nM]	IC50 (read off the curve) [10] [mg/L]	EC50 (nM) B cell: dose for 50% of maximum B cell proliferation [3] [nM]	EC50 w/sCD40L (nM): B cell proliferation with constant 6 nM soluble human CD40L [3] [nM]	fold higher antibody level required to partially block CD40 binding to CD40L, against the stoichiometric amounts of 12B4 and 12E12 [11] [fold]	binding result [9]
anti-CD40 12E12 human IgG4 antibody (antibody, V domains shown, also called mAb6 [12E12]; anti-CD40 12E12 IgG4) VH: EVQLVESGGGLVQPGGSLKLSCATSGFTFSDYYMYWVRQAPGKGLEWVAYINSGGGSTYYPDTVKGRFTISRDNAKNTLYLQMNSLRAEDTAVYYCARRGLPFHAMDYWGQGTLVTVSS VL: DIQMTQSPSSLSASVGDRVTITCSASQGISNYLNWYQQKPGKAVKLLIYYTSILHSGVPSRFSGSGSGTDYTLTISSLQPEDFATYYCQQFNKLPPTFGGGTK	28	~1	~10	~0	> 10	> 1000	> 10	~0	33	0.0046	150000	~0.0003	~0.0005	~0.0002	~0.0003	~0.5				
anti-CD40 24A3 human IgG4 antibody (antibody, V domains shown, also called mAb4 [24A3]) VH: DVQLQESGPDLVKPSQSLSLTCTVTGYSITSDYSWHWIRQFPGNKLEWMGYIYYSGSTNYNPSLKSRISITRDTSKNQFFLQLNSVTTEDSATYFCARFYYGYSFFDYWGQGTTLTVSS VL: QIVLTQSPAFMSASPGEKVTMTCSASSSVSYMHWYQQKSGTSPKRWIYDTSKLASGVPARFSGSGSGTSYSLTISSMEAEDAATYYCQQWSSNPLTFGAGTK			≥ 1000	~100	> 10	> 1000	≥ 10	> 1000	97	0.008	83000						> 10			
anti-CD40 11B6 human IgG4 antibody (antibody, V domains shown, also called mAb1 [11B6 VH/VkV2]; PAB3405) VH: EVQLVQSGAEVKKPGASVKISCKASGYSFTGYYMHWVKQAHGQGLEWIGRINPYNGATSYNQNFKDRATLTVDKSTSTAYMELSSLRSEDTAVYYCAREDYVYWGQGTTVTVSS VL: DVVMTQSPLSLPVTLGQPASISCRSSQSLVHSNGNTYLHWYQQRPGQSPRLLIYKVSNRFSGVPDRFSGSGSGTDFTLKISRVEAEDVGVYFCSQSTHVPWTFGGGTKLEIKR		~2.5	≥ 100	≥ 100	> 10	> 1000	≥ 0.1	> 1000	217	0.064	300000	~0.0002	~0.0003	~0.0002	~0.0003		≥ 10	≥ 0.1		
CP-870,893 formatted as human IgG4 (antibody, V domains shown, also called mAb5 [CP870893]; anti-CD40 CP) VH: not shown VL: DIQMTQSPSSVSASVGDRVTITCRASQGIYSWLAWYQQKPGKAPNLLIYTASTLQSGVPSRFSGSGSGTDFTLTISSLQPEDFATYYCQQANIFPLTFGGGTK			1	~0	~0.1	1	≥ 0.01	~100	71	0.0022	46000	~0.003	~0.004	~0.01					> 20	no binding
anti-CD40 12B4 human IgG4 antibody (antibody, V domains shown, also called mAb3 [12B4]) VH: EVQLQQSGPELVKPGASVKMSCKASGYTFTDYVLHWVKQKPGQGLEWIGYINPYNDGTKYNEKFKGKATLTSDKSSSTAYMELSSLTSEDSAVYYCARGYPAYSGYAMDYWGQGTSVTVSS VL: DIQMTQTTSSLSASLGDRVTISCRASQDISNYLNWYQQKPDGTVKLLIYYTSRLHSGVPSRFSGSGSGTDYSLTISNLEQEDIATYFCHHGNTLPWTFGGGTK			~10	~0	> 10	≥ 100		~0	100	0.027	250000					~0.2				

— US20220175920A1 (INSERM INSTITUT NATIONAL DE LA SANTE ET DE LA RECHERCHE …, published 2022)
